The text below walks through data of article PMC13618070.

This test addresses DCR-1•DRH-1 complex (DCR-1•(OSF)DRH-1) (C. elegans) (UniProt P34529). The experiment in a line: pull-down.

As for “RDE-4 truncation R1R2 (dsRBM1 and dsRBM2, ends with D243) (from UniProt G5EBF5 1-243) (domain or fragment)”, the percent recovery normalized to WT RDE-4 is 8%.
